US20240075161A1 (AUGUSTA UNIVERSITY RESEARCH INSTITUTE, published 2024)
Where no end group is shown, it is not given here. The star is where a group is joined. Biotin = O=C1N[C@H]2[C@H](CS[C@H]2CCCCC(=O)*)N1

Target: T1, CD206 on CD206-positive M2 macrophages (mouse) (mouse, UniProt Q61830 20-1456)
T1 construct: whole, on cells; No purified CD206 was used; also called CD206 receptor; CD206+ RAW264.7 cells
T1 sequence (looked up): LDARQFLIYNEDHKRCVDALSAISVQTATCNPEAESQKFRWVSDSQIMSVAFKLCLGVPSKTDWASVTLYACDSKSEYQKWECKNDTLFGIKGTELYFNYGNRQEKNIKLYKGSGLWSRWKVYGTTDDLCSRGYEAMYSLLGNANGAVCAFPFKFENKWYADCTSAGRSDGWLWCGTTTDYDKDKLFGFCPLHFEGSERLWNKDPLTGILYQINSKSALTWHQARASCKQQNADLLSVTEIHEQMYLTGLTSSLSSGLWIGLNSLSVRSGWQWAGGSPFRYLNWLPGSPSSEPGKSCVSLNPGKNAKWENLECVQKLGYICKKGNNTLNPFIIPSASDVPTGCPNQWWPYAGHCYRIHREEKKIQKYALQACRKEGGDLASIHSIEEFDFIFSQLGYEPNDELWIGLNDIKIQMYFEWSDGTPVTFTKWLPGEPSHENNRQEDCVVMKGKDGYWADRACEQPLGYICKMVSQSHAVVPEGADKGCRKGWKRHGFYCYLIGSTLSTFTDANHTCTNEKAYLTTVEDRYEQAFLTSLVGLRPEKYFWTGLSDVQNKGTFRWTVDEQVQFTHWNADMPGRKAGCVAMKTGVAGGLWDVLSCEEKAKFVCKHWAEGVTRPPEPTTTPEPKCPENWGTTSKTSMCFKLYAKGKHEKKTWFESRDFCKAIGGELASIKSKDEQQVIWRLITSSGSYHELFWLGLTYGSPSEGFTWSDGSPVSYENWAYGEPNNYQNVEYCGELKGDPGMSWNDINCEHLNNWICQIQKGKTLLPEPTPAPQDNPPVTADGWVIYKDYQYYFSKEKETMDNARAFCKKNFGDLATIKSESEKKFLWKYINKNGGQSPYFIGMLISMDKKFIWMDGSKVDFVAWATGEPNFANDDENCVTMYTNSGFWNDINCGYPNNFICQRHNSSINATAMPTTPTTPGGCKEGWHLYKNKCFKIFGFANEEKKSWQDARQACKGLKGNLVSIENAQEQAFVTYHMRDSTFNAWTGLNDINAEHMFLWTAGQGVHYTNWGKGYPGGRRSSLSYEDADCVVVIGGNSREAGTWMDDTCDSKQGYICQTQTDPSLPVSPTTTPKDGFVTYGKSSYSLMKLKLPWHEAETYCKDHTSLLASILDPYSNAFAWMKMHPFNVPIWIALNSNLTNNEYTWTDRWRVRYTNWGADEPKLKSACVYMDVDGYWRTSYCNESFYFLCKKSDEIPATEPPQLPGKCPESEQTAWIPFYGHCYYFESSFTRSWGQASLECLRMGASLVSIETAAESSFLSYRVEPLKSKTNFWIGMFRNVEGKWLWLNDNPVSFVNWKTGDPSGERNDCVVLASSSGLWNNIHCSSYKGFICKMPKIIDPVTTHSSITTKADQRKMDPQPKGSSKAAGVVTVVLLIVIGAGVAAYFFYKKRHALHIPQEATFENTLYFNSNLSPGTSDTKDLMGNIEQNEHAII
Experiment: immunofluorescence of tumor, spleen and lung sections of 4T1 tumor-bearing mice after i.v. injection

- binding result: binds
B1: Biotinylated precision peptide (Biotin-CSPGAKVRC), rhodamine-labeled (peptide)
peptide: Biotin-CSPGAKVRC
modifications: cysteine pairing not given here; also: complex with rhodamine-tagged streptavidin
notes: Synthetic peptide (GeneScript); injected i.v. as a complex with rhodamine-streptavidin; also called Rhodamine red-labeled targeting peptide; rhodamine-labeled precision peptide
